Measurements from patent US20120004175A1 (RESEARCH FOUNDATION OF STATE UNIVERSITY OF NEW YORK, published 2012).

Target: T1, NF-κB p65 (mouse, intestinal epithelial cells of wild-type C57BL/6J and Min mice) (mouse, UniProt Q04207 1-549)
T1 construct: Endogenous mouse protein
Experiment: anti-p65 immunoprecipitation of nuclear extract from mouse intestinal epithelial cells, immunoblot

T1 sequence (Q04207 whole entry): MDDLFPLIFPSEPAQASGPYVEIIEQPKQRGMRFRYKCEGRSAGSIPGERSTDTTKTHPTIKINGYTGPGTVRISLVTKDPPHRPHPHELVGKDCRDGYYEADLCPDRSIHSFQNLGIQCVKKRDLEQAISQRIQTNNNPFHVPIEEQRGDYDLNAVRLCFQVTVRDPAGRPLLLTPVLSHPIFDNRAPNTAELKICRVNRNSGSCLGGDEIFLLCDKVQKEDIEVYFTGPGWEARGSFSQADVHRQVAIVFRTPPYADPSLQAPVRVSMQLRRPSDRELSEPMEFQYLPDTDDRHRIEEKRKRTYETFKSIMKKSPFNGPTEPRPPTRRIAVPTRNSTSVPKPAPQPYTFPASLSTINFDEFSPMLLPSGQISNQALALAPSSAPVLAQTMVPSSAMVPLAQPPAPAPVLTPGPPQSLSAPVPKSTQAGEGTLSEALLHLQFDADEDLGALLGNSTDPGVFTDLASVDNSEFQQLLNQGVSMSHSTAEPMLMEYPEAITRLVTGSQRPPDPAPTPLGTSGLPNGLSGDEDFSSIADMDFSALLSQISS

B1: annexin 1 (mouse, intestinal epithelial cells of wild-type C57BL/6J and Min mice) (other, UniProt P10107 2-346, looked up)
chain: AMVSEFLKQARFLENQEQEYVQAVKSYKGGPGSAVSPYPSFNVSSDVAALHKAIMVKGVDEATIIDILTKRTNAQRQQIKAAYLQENGKPLDEVLRKALTGHLEEVVLAMLKTPAQFDADELRGAMKGLGTDEDTLIEILTTRSNEQIREINRVYREELKRDLAKDITSDTSGDFRKALLALAKGDRCQDLSVNQDLADTDARALYEAGERRKGTDVNVFTTILTSRSFPHLRRVFQNYGKYSQHDMNKALDLELKGDIEKCLTTIVKCATSTPAFFAEKLYEAMKGAGTRHKALIRIMVSRSEIDMNEIKVFYQKKYGISLCQAILDETKGDYEKILVALCGGN
notes: Endogenous mouse protein; also called induced annexin 1
B1: binds.
